Results as given in the DeepSol protein solubility set.

Experiment: soluble on expression in E. coli; label from the status in PepcDB or PDB records

For “MIWLVLVLSLFLFSCEKLNEIFLEEDLLQRPPSKRCSDCHAKIYEDWEKSRHAKAWVSEHFKEESENYSKLKCLSCHAPHQVDPLKKPVLRVERRHEGVNCIACHFKEETKAMHGPYKVFSPPHPSREDKNYTKSEICAGCHQKTYREWKIARVKTTCQQCHMKVVDYAWIMDKFPFFLFHSRKALHDHTFPAGKATPKDIKLILTEGALNIINVGIPHNLPTADQGNPKLYLIIEFYYKDGKKKVLRRVLSPQAKTALAYLIPYTVKIPRYEKLEKVRVSIYRRLAWEKKRELILSEELKKPF”, which “soluble on expression in E. coli” value is on record?
The value was “not soluble”.

For “MGSDKIHHHHHHMPSVFQLQALCAAVEKPSLRQAAEALCKTQPALTHALKQLESQLGLPLFNRDGYRLVLTGSGERIYQLALKTLESHAELEQLAQHLARGDEDRVVLTVEASFDLTPILSALESVQAEFSQTEIVIQQEYLTGAVERVQQGHANLAITPLAPALSPGTRLDTQPLSQGQMLNVAAPRLLARYPSLCSILELRKEYQILVQDSGSGTLGLKLGVQSAQRHWYVNSFATKLSLIEQGMGWGRLPEWMLTEALAAGRLQLLELADFPARQRFDYHLVRRSASVPGPVATRLWQRLGGGAL”, which “soluble on expression in E. coli” value is on record?
The value was “not soluble”.

With “MGSDKIHHHHHHMETRRDERIGQLLQALKRSDKLHLKEAATLLGVSEMTIRRDLNHKSAPVVLLGGYIVLEPRSASHYLLSDQKSRLVEEKRRAAQLAAGLVQAHQTVFIDCGTTTPWIIEAIDNDLPFTAVCYSLNTFLALQDKPHCRAILSGGEFHASNAIFKPLDFHETLNNICPDIAFYSAAGVHTSKGATCFNLEELPVKHWAMTMAQCHVLVVDHSKFGKVRPARMGELSRFDTIISDRRPDEAFVAYAKAQQITLMY” as the sequence, how does the “soluble on expression in E. coli” value read?
Its value is “not soluble”.

Which “soluble on expression in E. coli” value does the source give for “MVPLVAVVSGPRAQLFACLLRLGTQQVGPLQLHTGASHAARNHYEVLVLGGGSGGITMAARMKRKVGAENVAIVEPSERHFYQPIWTLVGAGAKQLSSSGRPTASVIPSGVEWIKARVTELNPDKNCIHTDDDEKISYRYLIIALGIQLDYEKIKGLPEGFAHPKIGSNYSVKTVEKTWKALQDFKEGNAIFTFPNTPVKCAGAPQKIMYLSEAYFRKTGKRSKANIIFNTSLGAIFGVKKYADALQEIIQERNLTVNYKKNLIEVRADKQEAVFENLDKPGETQVISYEMLHVTPPMSPPDVLKTSPVADAAGWVDVDKETLQHRRYPNVFGIGDCTNLPTSKTAAAVAAQSGILDRTISVIMKNQTPTKKYDGYTSCPLVTGYNRVILAEFDYKAEPLETFPFDQSKERLSMYLMKADLMPFLYWNMMLRGYWGGPAFLRKLFHLGMS” here?
Its value is “not soluble”.

With “MARPIGIYEKATPKHFTWLERLNFAKELGFDFVELSIDESDERLARLDWSKKERLELVNAIFETGVRIPTITFSGHRRYPLGSNDSEKEARALEMMEKCIEFAQDIGIRNIQLAGYDVYYEEKSPKTRARFLKNLRQACTWAEEAQVILSIEIMDDPFINSIEKYLAVEKEIDSPYLFVYPDAGNVSAWGNDLWSEFYIGHKSIAALHLKDTYAVTESSKGQFRDVPFGQGCVDWEAMFDVLKKTNYNGPFLIEMWSENCETVEETRAAIKEAQDFLYPLIEKAGLR” as the sequence, how does the “soluble on expression in E. coli” value read?
Its value is “not soluble”.

For “MIKKLPLFIIVCLLAISSQALAETELEIEGLEGPLLSNVEAYISGIPEEDYSVSLRFQARLQESITDALKALGYYQSTTTFVVEGDTSDRTLLVNIDAGQPVIIYVSDIVISGEAAADEDFINAVDNSGLNLGQVINHGRYESLKSTLQNLALRKGYFDGDFTTNRLEIAPGRHQAIVRIHYDSGKRYSFGETSIDGSQIEEKRVRSIIPFQAGDPYLASQVGELNQYLSNTEWFSSVYVEPDIDAVGKTYQLPMKVHLSPQVRNQLETSIGYATDVGARGKIRWKKPWLNPEGHSLDTALSISKPEQEATISYKIPLEQVLKDYYVVKYGLKNVDNNDTDSLESNLAFERHWVYDSGWHRTIYTRFLYEEFTQGVQDGTAWLVLPGISFSKSRSRGGTMPMWGDKKAFTIEATDQALTSDVKLLRLQAQGAIVRSIGENHRGVARADIGAIYTDDFYKLPPSIRFFAGGDNSIRGYGYEEVSPKDSEGYLTGGQYMATASLEYQYRVVGNWWVATFVDYGDAWLDTPDWKMGTGVGIRWASPVGPVRLDFAWGLDAEPGDEFKIHFTLGPEVLEHHHHHH”, which “soluble on expression in E. coli” value is on record?
Its value is “soluble”.
